Laboratory results published in publication PMC5356265, “Increased enzymatic hydrolysis of sugarcane bagasse by a novel glucose- and xylose-stimulated β-glucosidase from Anoxybacillus flavithermus subsp. yunnanensis E13^T” (BMC Biochemistry, 2017).

Tested on: T1, O=[N+]([O-])c1ccc(O[C@@H]2O[C@H](CO)[C@@H](O)[C@H](O)[C@H]2O)cc1
T1 construct: full-length GH1 enzyme, no signal peptide; gene 1347 bp (448 residues deduced), 52 kDa; pET22b in E. coli BL21 (DE3), heat treatment and Ni-NTA purified
Assay: p-nitrophenol release at A410, Lineweaver-Burk
Format: biochemical, Anoxybacillus flavithermus subsp. yunnanensis
Details: Na2HPO4-citric acid buffer pH 7.0, 60 °C, no added sugar

In the case of “BglP (Bglp) (Anoxybacillus flavithermus subsp. yunnanensis)”, the Km is reported as 290 ± 10 µM.
